In assay [1] the target is CLSPCOL (hybrid polypeptide of CLSP(1-61), MycHisG and the collagen-homologous region of adiponectin) (human). As to the kind of experiment: cell-based or functional assay.
Assay [2] deals with human CLSP-MycHis (calmodulin-like skin protein, C-terminally tagged with MycHis) (human) (UniProt Q9NZT1). As to the kind of experiment: cell-based or functional assay.
The target of assay [3] is CLSP(1-61)-MycHis (N-terminal region of CLSP, amino acid 1-61, C-terminally tagged with MycHis) (human) (UniProt Q9NZT1). As to the kind of experiment: cell-based or functional assay.
In assay [4] the target is T1, apolipoprotein E4 C-terminally tagged with FLAG (overexpressed in F11 cells, immunoprecipitated with FLAG … (human, UniProt P02649 19-317)).
T1 construct: also called ApoE4-FLAG; ApoE4; not shown: C-terminal FLAG tag
The experiment in a line: pull-down of purified MycHis-tagged CLSP proteins with ApoE4-FLAG immunoprecipitated on M2 agarose beads, WB anti-myc [ApoE4 beads].

Assay [5] addresses T2, human adiponectin (BioVendor, cat. no. RD172029100) (human, UniProt Q15848 19-244, limits assumed).
T2 construct: Bought; also called ADN; wild-type adiponectin
T2 sequence: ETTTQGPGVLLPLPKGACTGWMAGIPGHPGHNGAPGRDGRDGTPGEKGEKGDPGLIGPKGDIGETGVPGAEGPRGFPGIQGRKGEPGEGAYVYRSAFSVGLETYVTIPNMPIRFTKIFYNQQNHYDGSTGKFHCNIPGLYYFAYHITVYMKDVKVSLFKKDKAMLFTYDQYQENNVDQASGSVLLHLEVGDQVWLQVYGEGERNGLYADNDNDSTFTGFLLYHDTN
The experiment in a line: Scatchard analysis; wells coated with 20 pM adiponectin, stepwise CLSP-HiBiT, HiBiT chemiluminescence [plot ADN]. On the procedure:
(§1) Dissociation constants were calculated by the Scatchard analysis using Prism7 software.
(§2) The dissociation constants (Kd) for the binding between CLSP and adiponectin, and between CLSP and ApoE4 were then measured (FIGS. 8b and c). For this purpose, adiponectin or ApoE4 protein was conjugated to the 96-well plates. Various concentrations of recombinant CLSP C-terminally tagged with HiBiT, a chemiluminescence producing tag, were added to the plates for simultaneous incubation. After washing, the amount of CLSP-HiBiT binding to adiponectin or ApoE4 on the wells was measured. The dissociation constant between adiponectin and CLSP or between ApoE4 and CLSP was measured to be 8.8 or 7.8 pM respectively by Scatchard analysis (FIG. 8c).
(§3) The dissociation constant for the binding between ApoE4 (or adiponectin) and CLSP was measured using Nano-Glo HiBiT Extracellular Detection System (Promega, cat. no.: N2420) in accordance with the instruction. For the coating of recombinant ApoE4 or adiponectin, 100 μl of 50 mM carbonate buffer (pH 9.6) containing 20 pM ApoE4 or adiponectin was incubated overnight at 4° C. in the wells of 96-well plates (Fluorescence-use Black-type Plate H, cat. no.: MS-8596KZ, Sumitomo Bakelite Co., Ltd., Tokyo, Japan). […] Resulting chemiluminescence was measured for each well using Wallac ARVO™ X5 (Perkin Elmer). […]
For orientation: With HiBiT, luminescence reflects the tagged protein that the partner subunit can reach.

Assay [6] concerns the target T3, recombinant human ApoE4 (PeproTech, cat. no. 350-04) (human, UniProt P02649 19-317).
T3 construct: also called apolipoprotein E4
The experiment in a line: Scatchard analysis; wells coated with 20 pM recombinant ApoE4, stepwise CLSP-HiBiT, HiBiT chemiluminescence [plot ApoE4]. On the procedure: as §1, §2, §3

Assay [7] deals with T3, recombinant human ApoE4 (PeproTech, …). As to the kind of experiment: plate coated with ApoE4, rising CLSP-HiBiT, chemiluminescence (Nano-Glo HiBiT), Scatchard analysis; ApoE4 on the plate. On the procedure:
as §2
as §3, with “Japan). The protein-coated plates were washed three times with 200 μl of PBS. Then, 150 μl of PBS containing 1% skim milk (GIBCO) was added to each well.” for “Japan).”

For assay [8], the target named is T2, human adiponectin (BioVendor, cat. no. …). As to the kind of experiment: plate coated with adiponectin, rising CLSP-HiBiT, chemiluminescence (Nano-Glo HiBiT), Scatchard analysis; adiponectin on the plate. On the procedure:
as §2
as §3, with “Japan). The protein-coated plates were washed three times with 200 μl of PBS. Then, 150 μl of PBS containing 1% skim milk (GIBCO) was added to each well.” for “Japan).”

Assay [9] concerns the target T1, apolipoprotein E4 C-terminally tagged …. The experiment in a line: pull-down with immunoprecipitated ApoE4-FLAG, immunoblot (FIG. 15 a, b). On the procedure:
(a, b) <Apolipoprotein E4 binds to the C-terminal region of CLSP> A schematic illustration of deletion mutants of CLSP is shown in (a). Apolipoprotein E4 (ApoE4) and adiponectin (ADN), C-terminally tagged with FLAG, were overexpressed in F11 neurohybrid cells by transfection. At 24 hours after the transfection, the cell lysates of F11 cells were prepared. For immunoprecipitation of ApoE4-FLAG and ADN-FLAG using the FLAG antibody, 300 μg of cell lysates was used. Recombinant CLSP-MycHis (FL-MH) or C-terminally MycHis-tagged CLSP deletion mutants produced in bacteria were purified. These immunoprecipitates and recombinant proteins were then subjected to SDS-PAGE and immunoblot analysis using the myc and FLAG antibodies (inputs). The ApoE4-FLAG and ADN-FLAG immunoprecipitates were mixed with recombinant CLSP-MycHis (FL-MH) or C-terminally MycHis-tagged CLSP deletion mutants and incubated at 4° C. overnight, followed by exhaustive washing. The pulled-down precipitates were then subjected to SDS-PAGE and immunoblotted using the myc and FLAG antibodies. (c) <CLSP binds to the collagen-homologous region of adiponectin> The collagen-homologous region of adiponectin (ADNCol), N-terminally tagged with 6×His and G(HisG), was produced in bacteria. In addition, CLSP-FLAG was overexpressed in F11 neurohybrid cells by transfection. […]

T3 sequence (P02649 19-317 C130R limits assumed): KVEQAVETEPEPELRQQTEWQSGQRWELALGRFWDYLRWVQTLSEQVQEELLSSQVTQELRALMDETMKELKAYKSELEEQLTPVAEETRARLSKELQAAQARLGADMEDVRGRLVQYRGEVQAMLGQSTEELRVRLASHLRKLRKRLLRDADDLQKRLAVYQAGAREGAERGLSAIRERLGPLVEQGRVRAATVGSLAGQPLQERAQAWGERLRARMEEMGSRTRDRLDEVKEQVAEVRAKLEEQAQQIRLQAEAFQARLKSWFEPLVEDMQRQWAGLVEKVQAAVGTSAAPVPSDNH
T1 sequence (P02649 19-317 C130R limits assumed): as above

calreticulin came in with an inhibition of the cell death-suppressing activity of 100 pM CLSPCOL; concentration at which inhibition began in [1] of 1 nM. Moreover, the inhibition of the CLSP-mediated protection of V642I-APP-induced neuronal death; concentration for complete inhibition of 10 nM CLSP in assay [2] was determined as 50 nM. In [3], this molecule had an inhibition of the cell death-suppressing activity of CLSP1-61 (cell death assay, FIG. 19) of 10 fold amount.

As to “recombinant GST-human 14-3-3σ (from UniProt P31947 1-248)”, in [2], the inhibition of the CLSP-mediated protection of V642I-APP-induced neuronal death; concentration at which inhibition of 10 nM CLSP began came out at 10 nM and the inhibition of the CLSP-mediated protection of V642I-APP-induced neuronal death; concentration for complete inhibition of 10 nM CLSP was 20 nM. The inhibition of the cell death-suppressing activity of CLSP1-61 (cell death assay, FIG. 19) in assay [3] was 10 fold amount.

B1: CLSP deletion mutant EHR, C-terminally tagged with MycHis (consists of only the endogenous humanin-homogenous region) (peptide)
chain: TGKNLSEAQLRKLISEVDSDGD
notes: also called mutants consisting of only EHR; not shown: C-terminal MycHis tag
As to B1, the binding result in assay [4] is given as “no binding”.

B2: CLSP-HiBiT (recombinant CLSP C-terminally tagged with HiBiT) (ligand)
chain: MAGELTPEEEAQYKKAFSAVDTDGNGTINAQELGAALKATGKNLSEAQLRKLISEVDSDGDGEISFQEFLTAAKKARAGLEDLQVAFRAFDQDGDGHITVDELRRAMAGLGQPLPQEELDAMIREADVDQDGRVNYEEFARMLAQEVSGWRLFKKIS
notes: HiBiT oligonucleotides were put into pGEX-2T-CLSP at the SmaI-EcoRI site; Made 'in the same way' as CLSP-MycHis (GST fusion, thrombin release); also called GST-CLSP-HiBiT (precursor)
What is called Kd is the concentration at which binding is half-saturated. As for B2, the Kd amounted to 7.8 pM in assay [5], 8.8 pM in assay [6], 7.8 pM in assay [7] and 8.8 pM in assay [8].

B3: CLSP(1-61)-MycHis (N-terminal region of CLSP, amino acid 1-61, C-terminally tagged with MycHis) (ligand)
chain: MAGELTPEEEAQYKKAFSAVDTDGNGTINAQELGAALKATGKNLSEAQLRKLISEVDSDGD
notes: Made in bacteria; not shown: C-terminal MycHis tag
Consider B3, for which the binding result in [9] is recorded as “no binding”.

For the origin of these results see patent US20220275038A1 (TOKYO MEDICAL UNIVERSITY, published 2022).
